From patent US20230340151A1 (Pfizer, published 2023)
Positions count from the first letter of the chain named.

T1: Human CD3 epsilon-delta (human)
T1 construct: Single-chain epsilon-linker-delta with His6; also called huCD3
T1 chain: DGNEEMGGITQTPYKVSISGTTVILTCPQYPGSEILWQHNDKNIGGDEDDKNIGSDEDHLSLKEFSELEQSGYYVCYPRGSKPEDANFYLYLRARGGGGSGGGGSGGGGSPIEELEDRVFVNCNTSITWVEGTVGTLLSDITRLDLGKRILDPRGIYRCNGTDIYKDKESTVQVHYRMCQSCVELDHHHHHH

T2: Murine GUCY2C-ECD cleaved (mouse, UniProt Q3UWA6 20-433)
T2 sequence: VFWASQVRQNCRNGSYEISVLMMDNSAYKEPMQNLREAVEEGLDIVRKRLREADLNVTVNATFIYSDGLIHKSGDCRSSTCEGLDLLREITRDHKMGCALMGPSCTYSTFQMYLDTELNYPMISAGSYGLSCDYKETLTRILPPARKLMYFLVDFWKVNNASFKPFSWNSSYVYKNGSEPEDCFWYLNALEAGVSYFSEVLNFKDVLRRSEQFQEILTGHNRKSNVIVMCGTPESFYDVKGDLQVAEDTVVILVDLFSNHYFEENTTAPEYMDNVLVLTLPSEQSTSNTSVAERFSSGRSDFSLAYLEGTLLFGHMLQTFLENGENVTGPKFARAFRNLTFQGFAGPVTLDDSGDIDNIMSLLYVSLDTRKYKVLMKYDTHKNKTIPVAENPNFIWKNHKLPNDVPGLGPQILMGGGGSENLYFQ

T3: Cynomolgus GUCY2C-ECD Cleaved (cynomolgus, UniProt P25092 24-430 (human entry))
T3 construct: also called CyGUCY2C
T3 chain: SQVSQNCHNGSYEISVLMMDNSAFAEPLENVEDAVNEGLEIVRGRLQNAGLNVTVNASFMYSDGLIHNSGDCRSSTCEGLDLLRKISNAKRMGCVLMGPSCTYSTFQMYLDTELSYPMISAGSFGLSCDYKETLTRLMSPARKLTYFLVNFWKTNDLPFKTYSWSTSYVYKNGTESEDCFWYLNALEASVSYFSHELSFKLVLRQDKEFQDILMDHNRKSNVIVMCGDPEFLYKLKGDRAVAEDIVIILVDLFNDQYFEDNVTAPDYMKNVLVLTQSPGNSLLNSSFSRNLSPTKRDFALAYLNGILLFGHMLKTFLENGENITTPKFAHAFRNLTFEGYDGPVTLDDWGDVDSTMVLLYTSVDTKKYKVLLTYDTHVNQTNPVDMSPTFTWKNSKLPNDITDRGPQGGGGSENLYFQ

T4: Cynomolgus CD3 epsilon-delta (cynomolgus)
T4 chain: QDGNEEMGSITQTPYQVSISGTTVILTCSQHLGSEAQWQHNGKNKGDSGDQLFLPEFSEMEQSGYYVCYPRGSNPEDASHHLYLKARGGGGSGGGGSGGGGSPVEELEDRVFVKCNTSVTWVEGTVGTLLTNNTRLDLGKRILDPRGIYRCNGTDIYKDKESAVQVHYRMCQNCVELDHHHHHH

B1: GUCY2C-0074 (bispecific antibody)
chain 1: DIVLTQSPASLAVSLGQRATISCRASESVDNYGISFMNWFQQKPGQPPKLLIYAASNPGSGVPARFSGSGSGTDFSLNIHPLEEDDTAMFFCQQSKEVPYTFGGGTKLEIKGGGSGGGGEVQLVESGGGLVQPGGSLRLSCAASGFTFSDYYMTWVRQAPGKGLEWVAFIRNRARGYTSDHNPSVKGRFTISRDNAKNSLYLQMNSLRAEDTAVYYCARDRPSYYVLDYWGQGTTVTVSSGCPPCPAPEAAGAPSVFLFPPKPKDTLMISRTPEVTCVVVDVSHEDPEVKFNWYVDGVEVHNAKTKPREEQYNSTYRVVSVLTVLHQDWLNGKEYKCKVSNKALPAPIEKTISKAKGQPREPQVCTLPPSREEMTKNQVSLWCLVKGFYPSDIAVEWESNGQPENNYKTTPPVLDSDGSFFLYSKLTVDKSRWQQGNVFSCSVMHEALHNHYTQKSLSLSPG
chain 2: DIVMTQSPDSLAVSLGERATINCKSSQSLFNVRSRKNYLAWYQQKPGQPPKLLISWASTRESGVPDRFSGSGSGTDFTLTISSLQAEDVAVYYCKQSYDLFTFGSGTKLEIKGGGSGGGGEVQLQQSGAELARPGASVNLSCKASGYTFTTYWMQWVKQRPGQGLEWIGAIYPGDGMTTYTQKFKDKATLTADKSSSTAYMQLSSLASEDSAVYYCVRKGMDYWGQGTSVTVSSGCPPCPAPEAAGAPSVFLFPPKPKDTLMISRTPEVTCVVVDVSHEDPEVKFNWYVDGVEVHNAKTKPREEQYNSTYRVVSVLTVLHQDWLNGKEYKCKVSNKALPAPIEKTISKAKGQPREPQVYTLPPCREEMTKNQVSLSCAVKGFYPSDIAVEWESNGQPENNYKTTPPVLDSDGSFFLVSKLTVDKSRWQQGNVFSCSVMHEALHNHYTQKSLSLSPG
notes: chimeric CD3-GUCY2c diabody-Fc, CD3-0004
B2: GUCY2C-0077 (bispecific antibody)
chain 1: B1 chain 1 with Y32F, G33D, P58Q, L82M, F90Y
chain 2: DIVMTQSPDSLAVSLGERATINCKSSQSLFNVRSRKNYLAWYQQKPGQPPKLLISWASTRESGVPDRFSGSGSGTDFTLTISSLQAEDVAVYYCKQSYDLFTFGSGTKLEIKGGGSGGGGEVQLQQSGAELARPGASVKLSCKASGYTFTKYWMQWIKQRPGQGLEWIGAIYPGDGFTTYTQKFKGKATLTADKSSNTAYMQLSSLASEDSAVYYCARRNYGRTYGGDYWGQGTSVTVSSGCPPCPAPEAAGAPSVFLFPPKPKDTLMISRTPEVTCVVVDVSHEDPEVKFNWYVDGVEVHNAKTKPREEQYNSTYRVVSVLTVLHQDWLNGKEYKCKVSNKALPAPIEKTISKAKGQPREPQVYTLPPCREEMTKNQVSLSCAVKGFYPSDIAVEWESNGQPENNYKTTPPVLDSDGSFFLVSKLTVDKSRWQQGNVFSCSVMHEALHNHYTQKSLSLSPG
B3: GUCY2C-0104 (bispecific antibody)
chain 1: DIVMTQSPASLAVSLGQRATISCRASKGVTTSGYSYMHWYQQKPGQPPKLLIYLASNLESGVPARFSGSGSGTDFTLNIHPVEEEDAATYYCQHSREFPLTFGAGTKLELKGGGSGGGGEVQLVESGGGLVQPGGSLRLSCAASGFTFSDYYMTWVRQAPGKGLEWVAFIRNRARGYTSDHNPSVKGRFTISRDNAKNSLYLQMNSLRAEDTAVYYCARDRPSYYVLDYWGQGTTVTVSSGCPPCPAPEAAGAPSVFLFPPKPKDTLMISRTPEVTCVVVDVSHEDPEVKFNWYVDGVEVHNAKTKPREEQYNSTYRVVSVLTVLHQDWLNGKEYKCKVSNKALPAPIEKTISKAKGQPREPQVCTLPPSREEMTKNQVSLWCLVKGFYPSDIAVEWESNGQPENNYKTTPPVLDSDGSFFLYSKLTVDKSRWQQGNVFSCSVMHEALHNHYTQKSLSLSPG
chain 2: DIVMTQSPDSLAVSLGERATINCKSSQSLFNVRSRKNYLAWYQQKPGQPPKLLISWASTRESGVPDRFSGSGSGTDFTLTISSLQAEDVAVYYCKQSYDLFTFGSGTKLEIKGGGSGGGGEVQLQQSGAELVKPGASVKLSCTASGFNIKDTYIHWVKQRPEQGLEWIGRIDPANGNANYDPKFQGKATITADTSSNTAYLQLSSLTSEDTAVFYCSSLGTGTYWGQGTTLTVSSGCPPCPAPEAAGAPSVFLFPPKPKDTLMISRTPEVTCVVVDVSHEDPEVKFNWYVDGVEVHNAKTKPREEQYNSTYRVVSVLTVLHQDWLNGKEYKCKVSNKALPAPIEKTISKAKGQPREPQVYTLPPCREEMTKNQVSLSCAVKGFYPSDIAVEWESNGQPENNYKTTPPVLDSDGSFFLVSKLTVDKSRWQQGNVFSCSVMHEALHNHYTQKSLSLSPG
B4: GUCY2C-0105 (bispecific antibody)
chain 1: DIVMTQSPSSLAVSVGEKVTVSCKSSQSLLYSSNQKNYLAWYQQRPGQSPKLLIYWASTRESGVPDRFTGSGSGTDFTLSISSVKAEDLAVYYCQQYYSYPTFGGGTKLEIKGGGSGGGGEVQLVESGGGLVQPGGSLRLSCAASGFTFSDYYMTWVRQAPGKGLEWVAFIRNRARGYTSDHNPSVKGRFTISRDNAKNSLYLQMNSLRAEDTAVYYCARDRPSYYVLDYWGQGTTVTVSSGCPPCPAPEAAGAPSVFLFPPKPKDTLMISRTPEVTCVVVDVSHEDPEVKFNWYVDGVEVHNAKTKPREEQYNSTYRVVSVLTVLHQDWLNGKEYKCKVSNKALPAPIEKTISKAKGQPREPQVCTLPPSREEMTKNQVSLWCLVKGFYPSDIAVEWESNGQPENNYKTTPPVLDSDGSFFLYSKLTVDKSRWQQGNVFSCSVMHEALHNHYTQKSLSLSPG
chain 2: DIVMTQSPDSLAVSLGERATINCKSSQSLFNVRSRKNYLAWYQQKPGQPPKLLISWASTRESGVPDRFSGSGSGTDFTLTISSLQAEDVAVYYCKQSYDLFTFGSGTKLEIKGGGSGGGGEVQLQQSGPELVKPGASVKISCKASGYSFTDYIMLWVKQSHGKSLEWIGNSNPYYGSTSYNLKFKGKATLTVDKSSSTAYMHLNSLTSEDSAVYYCARSGYYGSSPYWYFDVWGAGTTVTVSSGCPPCPAPEAAGAPSVFLFPPKPKDTLMISRTPEVTCVVVDVSHEDPEVKFNWYVDGVEVHNAKTKPREEQYNSTYRVVSVLTVLHQDWLNGKEYKCKVSNKALPAPIEKTISKAKGQPREPQVYTLPPCREEMTKNQVSLSCAVKGFYPSDIAVEWESNGQPENNYKTTPPVLDSDGSFFLVSKLTVDKSRWQQGNVFSCSVMHEALHNHYTQKSLSLSPG
notes: as for B1

Tests used:
Human GUCY2C ECD-muIgG2a = molecular target: T5, Human GUCY2C ECD-muIgG2a (human); assay: sandwich ELISA: CD3 epsilon-delta coated, GUCY2c ECD-mIgG2a Fc in solution
T5 construct: also called human GUCY2c ECD-mouse IgG2a Fc fusion protein; huGUCY2c-mIgG2a

Human CD3 epsilon-delta [1] = molecular target: T1, Human CD3 epsilon-delta; assay: SPR, anti-human IgG capture, 25 C
[2] = molecular target: T6, Human GUCY2C full length (SEQ ID NO: 224), recombinant protein (human, UniProt P25092 24-430, limits assumed); assay: SPR, anti-human IgG capture, 25 C
T6 construct: also called huGUCY2C; biotinylated human GUCY2c

[3] = molecular target: T2, Murine GUCY2C-ECD cleaved; assay: SPR, anti-human IgG capture, 25 C
[4] = molecular target: T3, Cynomolgus GUCY2C-ECD Cleaved; assay: SPR, anti-human IgG capture, 25 C
[5] = molecular target: T4, Cynomolgus CD3 epsilon-delta; assay: SPR, printed anti-His capture, 25 C (Table 33D)
Human CD3 epsilon-delta [6] = molecular target: T1, Human CD3 epsilon-delta; assay: direct ELISA, coated CD3 epsilon-delta
[7] = molecular target: Human GUCY2c on tumor cells (T84, HT55) (human, UniProt P25092 24-1073); assay: cell-based or functional assay
[8] = molecular target: T7, Purified human GUCY2c ECD (recombinant, construct not stated) (human, UniProt P25092 24-430); assay: direct ELISA, coated GUCY2c ECD
T7 construct: also called recombinant human GUCY2c; recombinant GUCY2c protein

[9] = molecular target: T6, Human GUCY2C full length (SEQ ID NO: …); assay: SPR, GUCY2c directly immobilized, 25 C

Sequence of Human GUCY2c on tumor cells (T84, HT55) (P25092 24-1073 limits assumed): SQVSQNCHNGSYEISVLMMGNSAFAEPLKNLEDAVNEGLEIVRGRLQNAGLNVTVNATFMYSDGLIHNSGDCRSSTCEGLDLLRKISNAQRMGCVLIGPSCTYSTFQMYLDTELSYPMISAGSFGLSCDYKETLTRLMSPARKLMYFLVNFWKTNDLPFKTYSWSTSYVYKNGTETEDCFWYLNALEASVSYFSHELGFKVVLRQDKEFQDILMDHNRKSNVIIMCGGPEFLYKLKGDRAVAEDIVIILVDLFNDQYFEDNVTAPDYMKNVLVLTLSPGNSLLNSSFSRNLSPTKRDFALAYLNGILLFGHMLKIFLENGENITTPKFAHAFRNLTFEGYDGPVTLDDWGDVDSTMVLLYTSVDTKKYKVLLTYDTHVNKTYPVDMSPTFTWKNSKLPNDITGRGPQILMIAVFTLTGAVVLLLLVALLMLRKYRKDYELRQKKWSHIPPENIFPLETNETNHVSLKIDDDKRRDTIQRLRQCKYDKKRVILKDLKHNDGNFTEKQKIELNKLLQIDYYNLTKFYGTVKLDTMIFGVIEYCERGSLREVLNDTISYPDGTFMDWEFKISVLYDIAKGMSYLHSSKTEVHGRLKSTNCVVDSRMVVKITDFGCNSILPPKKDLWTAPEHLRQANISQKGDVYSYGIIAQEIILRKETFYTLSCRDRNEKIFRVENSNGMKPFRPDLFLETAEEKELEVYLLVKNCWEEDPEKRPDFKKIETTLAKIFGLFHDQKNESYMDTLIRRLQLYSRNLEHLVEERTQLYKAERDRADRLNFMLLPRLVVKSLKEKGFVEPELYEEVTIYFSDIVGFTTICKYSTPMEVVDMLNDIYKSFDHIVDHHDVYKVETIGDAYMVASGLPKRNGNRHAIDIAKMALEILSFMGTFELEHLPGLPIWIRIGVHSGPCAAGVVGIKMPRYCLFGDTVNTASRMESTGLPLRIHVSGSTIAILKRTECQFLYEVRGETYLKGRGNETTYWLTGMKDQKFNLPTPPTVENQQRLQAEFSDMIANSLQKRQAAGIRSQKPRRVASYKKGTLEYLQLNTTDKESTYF
T7 sequence (P25092 24-430 limits assumed): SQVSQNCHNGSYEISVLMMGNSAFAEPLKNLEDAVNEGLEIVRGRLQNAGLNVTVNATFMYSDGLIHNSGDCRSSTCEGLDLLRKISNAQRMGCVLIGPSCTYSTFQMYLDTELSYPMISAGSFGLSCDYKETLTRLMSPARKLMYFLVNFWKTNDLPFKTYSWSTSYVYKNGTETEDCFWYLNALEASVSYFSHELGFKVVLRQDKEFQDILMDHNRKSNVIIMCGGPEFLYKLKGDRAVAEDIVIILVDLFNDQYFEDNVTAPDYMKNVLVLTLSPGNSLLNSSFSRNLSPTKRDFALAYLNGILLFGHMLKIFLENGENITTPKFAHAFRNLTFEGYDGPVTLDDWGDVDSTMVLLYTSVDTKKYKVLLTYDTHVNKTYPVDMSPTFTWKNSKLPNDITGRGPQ
T5 sequence (chain, as listed by the source limits assumed): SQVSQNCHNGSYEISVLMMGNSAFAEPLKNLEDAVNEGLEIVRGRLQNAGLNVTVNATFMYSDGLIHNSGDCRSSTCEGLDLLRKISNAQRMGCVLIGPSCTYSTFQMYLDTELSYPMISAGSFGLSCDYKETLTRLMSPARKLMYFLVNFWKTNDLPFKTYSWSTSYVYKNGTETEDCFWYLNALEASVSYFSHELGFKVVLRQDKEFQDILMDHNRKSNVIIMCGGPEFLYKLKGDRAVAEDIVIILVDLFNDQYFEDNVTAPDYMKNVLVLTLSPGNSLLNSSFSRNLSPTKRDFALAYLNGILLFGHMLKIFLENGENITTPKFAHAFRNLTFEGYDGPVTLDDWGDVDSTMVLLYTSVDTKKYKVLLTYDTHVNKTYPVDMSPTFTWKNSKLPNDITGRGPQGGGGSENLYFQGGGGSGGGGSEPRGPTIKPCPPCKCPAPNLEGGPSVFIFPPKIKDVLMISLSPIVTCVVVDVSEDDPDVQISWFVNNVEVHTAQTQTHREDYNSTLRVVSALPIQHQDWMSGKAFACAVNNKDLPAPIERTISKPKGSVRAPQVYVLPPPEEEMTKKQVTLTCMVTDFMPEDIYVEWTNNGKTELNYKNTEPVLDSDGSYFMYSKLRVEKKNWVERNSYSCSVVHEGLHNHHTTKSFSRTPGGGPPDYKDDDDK
T6 sequence (P25092 24-430 F281L limits assumed): as the sequence (P25092 24-430 limits assumed) above, with F258L counted along it

Binder	EC50 (Human GUCY2C ECD-muIgG2a) [nM]	EC50 (Human CD3 epsilon-delta [6]) [nM]	T84 tumor cell EC50 (T cell cytotoxicity, E:T 10:1) [7] [nM]	EC50 [8] [nM]	Kd [9] [nM]	koff [9] [s⁻¹]	kon [9] [M⁻¹ s⁻¹]	other results
B1	4.05	1.13	2.6	> 100	–	–	–	Kd (Human CD3 epsilon-delta [1]): 2.17 nM; koff (Human CD3 epsilon-delta [1]): 0.000861 s⁻¹; kon (Human CD3 epsilon-delta [1]): 471000 M⁻¹ s⁻¹; Kd [2]: 45.4 nM; koff [2]: 0.002 s⁻¹; kon [2]: 44100 M⁻¹ s⁻¹; Kd [3]: 191 nM; koff [3]: 0.00282 s⁻¹; kon [3]: 14800 M⁻¹ s⁻¹; Kd [4]: 60.4 nM; koff [4]: 0.00284 s⁻¹; kon [4]: 47300 M⁻¹ s⁻¹; Kd [5]: 2.64 nM; koff [5]: 0.00112 s⁻¹; kon [5]: 425000 M⁻¹ s⁻¹
B2	7.5	0.887	28.7	27.5	160	0.0224	143000	–
B3	2.48	0.418	14.9	> 100	26.1	0.00386	148000	–
B4	5.04	0.355	7.51	79.8	–	–	–	–
